Measured values taken from patent publication US20150313988.

T1: RLRGG-AMC, C-terminal peptide motif of Ub and ISG15 coupled to aminomethylcoumarin
T1 chain: RLRGG


Columns and labels:
[1] = biological target: T1, RLRGG-AMC, C-terminal peptide motif of …
[2] = biological target: ubiquitin-aminomethylcoumarin, P0CG47
[3] = biological target: FLAG-tagged ubiquitin, P0CG47
Sequence of FLAG-tagged ubiquitin, P0CG47 (P0CG47 whole entry, looked up): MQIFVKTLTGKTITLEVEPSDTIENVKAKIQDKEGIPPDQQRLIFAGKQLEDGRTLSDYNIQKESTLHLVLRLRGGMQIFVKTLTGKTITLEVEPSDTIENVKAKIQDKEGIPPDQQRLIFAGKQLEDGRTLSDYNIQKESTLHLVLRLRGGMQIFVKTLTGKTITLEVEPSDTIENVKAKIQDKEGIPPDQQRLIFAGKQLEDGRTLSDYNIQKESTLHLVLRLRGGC

Sequence of ubiquitin-aminomethylcoumarin, P0CG47 (P0CG47 whole entry, looked up): as above

Protein | kcat/KM [1] | kcat/KM [2] | kcat/KM relative to wild type [2] | density of the alpha-flag lane (remaining ubiquitin conjugates) [3]
EAV PLP2 domain (residues 261-392 of EAV pp1a) carrying a C-terminal HIS6 purification tag, wild-type (protein) GYNPPGDGACGYRCLAFMNGATVVSAGCSSDLWCDDELAYRVFQLSPTFTVTIPGGRVCPNAKYAMICDKQHWRVKRAKGVGLCLDESCFRGICNCQRMSGPPPAPVSAAVLDHILEAATFGNVRVVTPEGQ | 48 ± 8 M⁻¹ s⁻¹ | 21000 ± 2000 M⁻¹ s⁻¹ | – | –
EAV PLP2 domain I353R mutant enzyme (protein) GYNPPGDGACGYRCLAFMNGATVVSAGCSSDLWCDDELAYRVFQLSPTFTVTIPGGRVCPNAKYAMICDKQHWRVKRAKGVGLCLDESCFRGRCNCQRMSGPPPAPVSAAVLDHILEAATFGNVRVVTPEGQ | 71 ± 8 M⁻¹ s⁻¹ | 1100 ± 100 M⁻¹ s⁻¹ | the kcat/KM value for Ub-AMC of the mutant I353R is 20 times lower than that of the wild-type virus | –
EAV nsp2-3 polyprotein with N-terminal HA tag, PLP2 mutant I353R (protein) GYNPPGDGACGYRCLAFMNGATVVSAGCSSDLWCDDELAYRVFQLSPTFTVTIPGGRVCPNAKYAMICDKQHWRVKRAKGVGLCLDESCFRGRCNCQRMSGPPPAPVSAAVLDHILEAATFGNVRVVTPEGQPRPVPAPRVRPSANSSGDVKDPAPVPPVPKPRTKLATPNPTQAPIPAPRTRLQGASTQEPLASAGVASDSAPKWRVAKTVYSSAERFRTELVQRARSVGDVLVQALPLKTPAVQRYTMTLKMMRSRFSWHCDVWYPLAVIACLLPIWPSLALLLSFAIGLIPSVGNNVVLTALLVSSANYVASMDHQCEGAACLALLEEEHYYRAVRWRPITGALSLVLNLLGQVGYVARSTFDAAYVPCTVFDLCSFAILYLCRNRCWRCFGRCVRVGPATHVLGSTGQRVSKLALIDLCDHFSKPTIDVVGMATGWSGCYTGTAAMERQCASTVDPHSFDQKKAGATVYLTPPVNSGSALQCLNVMWKRPIGSTVLGEQTGAVVTAVKSISFSPPCCVSTTLPTRPGVTVVDHALYNRLTASGVDPALLRVGQGDFLKLNPGFRLIGGWIYGICYFVLVVVSTFTCLPIKCGIGTRDPFCRRVFSVPVTKTQEHCHAGMCASAEGISLDSLGLTQLQSYWIAAVTSGLVILLVCHRLAISALDLLTLASPLVLLVFPWASVGLLLACSLAGAAVKIQLLATLFVNLFFPQATLVTMGYWACVAALAVYSLMGLRVKVNVPMCVTPAHFLLLARSAGQSREQMLRVSAAAPTNSLLGVARDCYVTGTTRLYIPKEGGMVFE | – | – | – | shows a density of the alpha-flag lane that is about twice as high as that of the T312A lane
EAV nsp2-3 polyprotein with N-terminal HA tag, PLP2 mutant T312A (protein) GYNPPGDGACGYRCLAFMNGATVVSAGCSSDLWCDDELAYRVFQLSPTFTVAIPGGRVCPNAKYAMICDKQHWRVKRAKGVGLCLDESCFRGICNCQRMSGPPPAPVSAAVLDHILEAATFGNVRVVTPEGQPRPVPAPRVRPSANSSGDVKDPAPVPPVPKPRTKLATPNPTQAPIPAPRTRLQGASTQEPLASAGVASDSAPKWRVAKTVYSSAERFRTELVQRARSVGDVLVQALPLKTPAVQRYTMTLKMMRSRFSWHCDVWYPLAVIACLLPIWPSLALLLSFAIGLIPSVGNNVVLTALLVSSANYVASMDHQCEGAACLALLEEEHYYRAVRWRPITGALSLVLNLLGQVGYVARSTFDAAYVPCTVFDLCSFAILYLCRNRCWRCFGRCVRVGPATHVLGSTGQRVSKLALIDLCDHFSKPTIDVVGMATGWSGCYTGTAAMERQCASTVDPHSFDQKKAGATVYLTPPVNSGSALQCLNVMWKRPIGSTVLGEQTGAVVTAVKSISFSPPCCVSTTLPTRPGVTVVDHALYNRLTASGVDPALLRVGQGDFLKLNPGFRLIGGWIYGICYFVLVVVSTFTCLPIKCGIGTRDPFCRRVFSVPVTKTQEHCHAGMCASAEGISLDSLGLTQLQSYWIAAVTSGLVILLVCHRLAISALDLLTLASPLVLLVFPWASVGLLLACSLAGAAVKIQLLATLFVNLFFPQATLVTMGYWACVAALAVYSLMGLRVKVNVPMCVTPAHFLLLARSAGQSREQMLRVSAAAPTNSLLGVARDCYVTGTTRLYIPKEGGMVFE | – | – | – | a mutant such as T312A already shows a level of DUB-activity that leads to a significantly denser alpha-flag lane, which represents the amount of remaining ubiquitin conjugates, than that of the wild-type virus
